In patent publication US7094599 one finds percent cytolysis of Raji (MHC class II+) cells by CTL expressing CD4:ζ data, which are given here for one substance.

In the assay the target is MHC class II antigen on the Raji B cell line. In words: cell-based or functional assay.

Substance CD4:ζ (receptor) registered a percent cytolysis of Raji (MHC class II+) cells by CTL expressing CD4:ζ of 5%.
